# Entries after “also recorded” stand apart in the source; their conditions may differ.
# Test system: human mammary epithelial cells
# Assay: Human mammary organoids stained for K8/K14, confocal microscopy
# Format: cell-based
# Details: Day 17 organoids; 50 ng/mL NRG3, 100 ng/mL AMH, 50 ng/mL GM-CSF
# Description: Organoids were recovered from Matrigel by incubating in Corning Cell Recovery Solution for 1 hour with rocking on ice. Organoids were then fixed in 4% paraformaldehyde (PFA) at room temperature for 1 hour and stored in PBS at 4° C. After PFA fixation, antigen retrieval was performed by boiling the organoids in sodium citrate buffer for 20 minutes at 96° C. Organoids were permeabilized in a 0.5% Triton-X-100 solution in PBS overnight at room temperature. Samples were blocked by incubating overnight in a solution of 5% goat serum.
# Following fixation and permeabilization, the organoids were incubated sequentially in primary antibody and secondary antibody solutions (as summarized in the table below) overnight at room temperature. Samples were counterstained in a 2 μg/ml DAPI solution for 20 minutes and dehydrated through stepwise incubations in solutions with increasing methanol concentrations (50%, 80%, then 100% methanol). Organoids were embedded in a solution of 2:1 Benzyl Benzoate-Benzyl alcohol (BABB), transferred to Ibidi glass bottom chamber slides and imaged using a Leica SP8 confocal laser scanning microscope. […]
# The effects of modulating signaling through BMP were analyzed across multiple experiments in terms of total cell count among formed organoids (FIG. 9A) and the lineage balance of the cells among formed organoids (FIG. 9B). […]
molecule,measurement,value
"anti mullerian hormone (protein, UniProt P03971 452-560, looked up) Muellerian-inhibiting factor: SAGATAADGPCALRELSVDLRAERSVLIPETYQANNCQGVCGWPQSDRNPRYGNHVVLLLKMQVRGAALARPPCCVPTAYAGKLLISLSEERISAHHVPNMVATECGCR",lineage restriction of organoids formed (K8/K14 staining),bias the culture of mammary epithelial cells to form luminal-restricted organoids; also recorded: Luminal-restricted organoids were formed

# Source: patent US20240191187A1, “MEDIA AND METHODS FOR GROWING MAMMARY ORGANOIDS” (STEMCELL TECHNOLOGIES CANADA INC., priority 2021, published 2024)
